Laboratory results: patent US20160376333A1 (University of Washington, published 2016)

T1: Epstein-Barr virus BHRF1 a.a. 1-161 with C-terminal avi-6his tag (Epstein-Barr virus)
T1 construct: also called EBV BHRF1; BHRF1-biotin
T1 chain: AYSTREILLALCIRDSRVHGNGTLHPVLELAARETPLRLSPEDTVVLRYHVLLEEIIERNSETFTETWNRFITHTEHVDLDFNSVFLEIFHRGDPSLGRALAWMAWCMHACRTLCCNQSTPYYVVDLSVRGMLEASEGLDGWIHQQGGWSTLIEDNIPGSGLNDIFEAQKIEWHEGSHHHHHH

B1: Index 43 (designed binder)
chain: GKKAEEVLKEARKLHEAQLRYAYLMMKDWREKKQQEEKQTQREEKWTAWWIALMLMAIGDIFNFAEWAKEELDKLREKGLVEKKKAEEAKEKAEKLAEEASRRASEFAQLFAKWDKEG
B2: Index 46 (designed binder)
chain: GRDGERVVKWAKNQHENTVDEAKDKMDNQEDEMRKKNADDEKLRKETHKWIAFALEAIGDVFNDAMQAFELLERFKKFGQQEQKKLDEFKEKVERLAREASRKLTYLGKRFALDIESG
B3: Index 54 (designed binder)
chain: GDKHEEAKEEAEKKFEKLRIEARLKAEWLKKAGKYGLQLQELWAKLSDYWIAFALEIIGDLFNFLEEHKEKIEKDLKKGEALDDRADDILKDLEKKAKEVSKHAMKLGREAQQFIELG
B4: Index 42 (designed binder)
chain: GQQEEQFIEDFKKEVLRAADDAKDDMEKRAEEFLKKDGDDNEKKRKILKWIADALEAIGDLFNAAQEAKRRAELYFKLGLLKKERKEEAEEEAEKAKEEASKKLHKAAREARIKMEKG
B5: Index 49 (designed binder)
chain: GWSKDWVLEWLREKLEEIDREALWKFILIWIEKMLGVDDDEQRRKDAAKWIAGSLEAIGDIFNAMMWAKRLLEWLEKANLVRREELEKAKQKAEELAKKAALRAAIYSKIAEEWLWKG
B6: Index 41 (designed binder)
chain: GEQEDKVKERAKRGALERAREMFEKMRKAIYLAELYINNDEGKTKLTDRWIAFALMMIGDIFNIALEARLEALKLVLKGLRSQEDAEKVKKLAEEAEREAAKRAAKLGDKMDEKEHEG
B7: Index 57 (designed binder)
chain: GDLKEELKERAKKIIRRALDEAKDAEDLIKKEAEKRYVTTEMATKFVAWWIAGALMIIGDIFNAAREVKERAEKALKWGVLSQDDIKELLLELENLEQEAKERAKEFGEKAEKFKKMG
B8: Index 59 (designed binder)
chain: GITLEKLWKEAKEKIRKREDEALLKAEWFKKKANNVLDLNDMKAKMTAKWIALALMAIGDIFNYLLETEIKARLLVRLGLFRQEEAEKKKEEAKEEAIKSSRNIAKRGEEAAKQMEQG
B9: Index 58 (designed binder)
chain: GEKAKKLEEYAREEIERALREGGDLMEEEREFGEKTELTTEWKHRAMAYWIAAALMIIGDGFNALQFIEEEGRKFIRKGEFARQKIEEHKERAKERLEKALKQAKKRGDELDRFARLG
B10: Index 48 (designed binder)
chain: GEKGKEKAQKFRDIIKDILEEAIRLAKDLAEDAKKFDLKLEKLLEATLKWIAAALMAIGDLFNFKDLAEKEVRERHDRGEISSDRRDKYEKEAREGADEAAKELSKLAKIAEKKILEG
B11: Index 45 (designed binder)
chain: GYSLDDFLKLAKLLAELLKRFIRKEAERLRELKEWLLDTTLGRLILTLEWIAIELMIIGDIFNAKMLLDKFAKYAEWLGLMKEEEAKQAKKLAKLLLDEVKDEARKKADDGEKFAEEG
B12: Index 53 (designed binder)
chain: GHVAEEEIRRFLRKAEKVLQEARRKMEKRRREAEEHDTTTWLLARGTIEWIADALMLIGDAFNFRREAYIRGELYKKFGLIREDDLKDRLKEADQRLDEFAKKMALFGLELHLRLREG
B13: Index 38 (designed binder)
chain: GEKLKKLAEELEKKFRKLFFILKDELDRAYLIALKTQVQRQELARDTKLWIAVALMIIGDLFNAEIQGKELRDKLIKKNQVEEQKAKEFWKKWEEVKQRAEELIKKGGEMVERLADYG
B14: Index 56 (designed binder)
chain: GESAEKWRERLREKAGYWAEYAFWLADEAEKRAKIYSASSERRAEWTMRWIAIALAAIGDVFNEGQKADEKFDELKKQNKRSDDDLDDYKDKFKEEVEKALRKLLKAGDKIADLAEQG
B15: Index 55 (designed binder)
chain: GEEAEKLIKEAKDKFEDLREKAEELLYKMWLIRYLSSKDTKRGEIYTKKWIAIMLMMIGDAFNMALRARLYLEERRKRGEKHEEEAEEKERRARWEQEDAYKKAKKGAKRARLYDKLG
B16: Index 39 (designed binder)
chain: GKKYLKAARLALYLLWEAYLRGYLNLLLDELEAEFFDPHDERKIRYTINWIADALMLIGDLFNARLKMEKALWELKKEGKLREEDYEKMERLFRKWMELAFKWLEHFREMAEKAKKKG
B17: Index 50 (designed binder)
chain: GKRAEELREEAEERAKEAFKETEQKLREVEERSRQTLARDEELRKAALLWIAAALMGIGDLFNKKEKGKEALEKEEKNGKRRTERAEREKERLEKEVSREAQRFKKKGEEEEKKHKYG
B18: Index 44 (designed binder)
chain: GESGEWILEKTREKIERAIRDAEKKLRLIILLIRLFHPGDDLRALFAAIWIAAELELIGDIFNEKQDAEEKFKELLKKNQFRWEELWRKWLILEWIFQKARRKSKELAERAKKAFDFG
B19: Index 52 (designed binder)
chain: GNDKEKFREDVKKKAKYALWKLKKLADEAKERALKFDPSEEMKREFTLEWIAWALEAIGDIFNAWLDGKKYADEAKKQGKARKEEAEETKKEATRIAKEAHEKASELARKILYHMLLG
B20: Index 40 (designed binder)
chain: GNEAEQRREEFKEIMEKKKDEAEKKSEKIKRLALAFDLSDDDKTKATDEWIAISLEIIGDAFNFGEGLKDEAKRRKKRGLKRDEEVDKFEKIAEQAIEELRKLAEEADERGAKHLRDG
B21: Index 51 (designed binder)
chain: GWTALWLKDFTEQEARKKFREALYYGWMMAMRALEHQLQADELAMWTALWIAAMLEAIGDMFNDKLRAEKYALLLIWLNLYHKDIAEKWREEHEEKLKEALQEMFEAAEKFDKFAKFG
B22: Index 60 (designed binder)
chain: GRQEDEIKDEATKRALEILQKLEQKVRKAKKFAKYGLLLQRWWAWITKVWIAAALDAIGDAFNLGEELKRILEELRRRGLSSEEKAQEIKNWIEWLEKWVAIMAKLFGEELEKQFKQG

Tests used:
[1] = molecular target: T1, Epstein-Barr virus BHRF1 a.a. 1-161 …; test: yeast display library, FACS sort at 400 nM BHRF1, deep sequencing
[2] = molecular target: T1, Epstein-Barr virus BHRF1 a.a. 1-161 …; test: yeast display library, FACS sort at 100 nM BHRF1, deep sequencing

| Binder | Log2 enrichment ratio [1] | Log2 enrichment ratio [2] |
| --- | --- | --- |
| B1 | -3.04 log2 | -2.44 log2 |
| B2 | -3.6 log2 | -3.41 log2 |
| B3 | -2.24 log2 | -3.22 log2 |
| B4 | -3.15 log2 | -3.63 log2 |
| B5 | -1.22 log2 | -2.7 log2 |
| B6 | -2.39 log2 | -2.17 log2 |
| B7 | -2.85 log2 | -1.97 log2 |
| B8 | -2.36 log2 | -2.86 log2 |
| B9 | -2.11 log2 | -2.36 log2 |
| B10 | -2.33 log2 | -2.8 log2 |
| B11 | -3.17 log2 | -2.44 log2 |
| B12 | 0.4 log2 | -0.29 log2 |
| B13 | -1.46 log2 | -1.71 log2 |
| B14 | -3.81 log2 | -3.49 log2 |
| B15 | -3.29 log2 | -2.69 log2 |
| B16 | -2.01 log2 | -2.08 log2 |
| B17 | -3.47 log2 | -3.79 log2 |
| B18 | -3.16 log2 | -3.29 log2 |
| B19 | -0.2 log2 | -0.83 log2 |
| B20 | -4.69 log2 | -3.7 log2 |
| B21 | -2.43 log2 | -2.53 log2 |
| B22 | -2.63 log2 | -2.91 log2 |
